Among the data in patent US9012398B2 are GLP1cAMPma (3693) [EC50 (nM)] Mean Value values, retold here.

In the assay the target is human GLP-1 receptor (human) (UniProt P43220).

“N-epsilon20-{2-(2-(2-(2-[2-(2-(4-(hexadecanoylamino)-4-(S)- carboxybutyrylamino)ethoxy)ethoxy]acetyl)ethoxy)ethoxy)acetyl)}- [[Aib2,Lys20,Gln28]Exendin-4-amide (from UniProt P26349) (peptide)” gave a GLP1cAMPma (3693) [EC50 (nM)] Mean Value of 0.0095 nM.

“N-ε^14-(2-(2-2-(2-(2-(4-(hexadecanoylamino)-4-(S)- carboxybytyrylamino)ethoxy)ethoxy)acetylamino)ethoxy)ethoxy)acetyl [Arg^12,Lys^l4,Val^27,Arg^28]Exendin-4-(1-39)-amide (from UniProt P26349) (peptide)” returned a GLP1cAMPma (3693) [EC50 (nM)] Mean Value of 0.037 nM.

In turn, “N-ε^20-[2-(2-[2-(2-[2-(2-[4-(17-Carboxyheptadecanoylamino)-4(S)- carboxybutyrylamino]ethoxy)ethoxy]acetylamino)ethoxy]ethoxy)acetyl] [Aib^2;Gln^28,Lys^20]exendin-4(1-39)amide (from UniProt P26349) (peptide)” gave a GLP1cAMPma (3693) [EC50 (nM)] Mean Value of 0.1 nM.

For “N-ε^20-(2-(2-(2-(2-(2-(2-(2-(2-(2- (Octadecanoylamino)ethoxy)ethoxy)acetylamino)ethoxy)ethoxy)acetyl- amino)ethoxy)ethoxy)acety))[Arg^12,27,28,Leu^14,Lys^20 Exendin-4(1- 39)amide (from UniProt P26349) (peptide)”, the GLP1cAMPma (3693) [EC50 (nM)] Mean Value turned out to be 0.007 nM.

In the case of “N--ε^20-{2-(2-(2-(2-[2-(2-(4-(hexadecanoylamino)-4- carboxybutyrylamino)ethoxy)ethoxy]acetyl)ethoxy)ethoxy)acetyl)}- [Leu^14,Gln^27,Gln^28,Lys^20]Exendin-4-amide (from UniProt P26349) (peptide)”, the GLP1cAMPma (3693) [EC50 (nM)] Mean Value amounted to 0.093 nM.

For “N-ε^20-[2-(2-[2-(2-[2-(2-[4-(hexadecanoylamino)-4(S)- carboxybutyrylamino]ethoxy)ethoxy]acetylamino)ethoxy]ethoxy)acetyl] [Imidazoylpropionyl^1,Lys^20,Gln^28]Exendin-4-(1-39)-amide (from UniProt P26349) (peptide)”, the GLP1cAMPma (3693) [EC50 (nM)] Mean Value is 0.042 nM.

Regarding “N-ε^12-(2-(2-(2-(2-(2-(2-(2-(2-(2-Octadecanoylamino) ethoxy)ethoxy)acetylamino)ethoxy)ethoxy)acetylamino)ethoxy)ethoxy)acetyl)) [Lys^12,Leu^14,Arg^27,Gln^28]Exendin-4-(1-39)-amide (from UniProt P26349) (peptide)”, the GLP1cAMPma (3693) [EC50 (nM)] Mean Value is 0.0035 nM.

“N-ε^27-[2-(2-[2-(2-[2-(2-[4-hexadecanoylamino-4(S)- carboxybutyrylamino]ethoxy)ethoxy]acetylamino)ethoxy]ethoxy)acetyl] [Arg^12,Leu^14,Lys^27,Ala^29]Exendin-4-(1-39)-amide (from UniProt P26349) (peptide)”: the GLP1cAMPma (3693) [EC50 (nM)] Mean Value came to 0.15 nM.

“N-ε^34-[2-(2-[2-(2-[2-(2-[4-hexadecanoylamino-4(S)- carboxybutyrylamino]ethoxy)ethoxy]acetylamino)ethoxy]ethoxy)acetyl] [Arg^12,27,Leu^14,Lys^34]Exendin-4(1-39)amide (from UniProt P26349) (peptide)” showed a GLP1cAMPma (3693) [EC50 (nM)] Mean Value of 0.018 nM.

“N-ε^34-[2-(2-[2-[4-hexadecanoylamino-4(S)- carboxybutyrylamino]ethoxy]ethoxy)acetyl][Arg^12,27,Leu^14,Lys^34] Exendin-4(1-39)amide (from UniProt P26349) (peptide)” showed a GLP1cAMPma (3693) [EC50 (nM)] Mean Value of 0.012 nM.

In turn, “N-ε^32-[2-(2-[2-(2-[2-(2-[2-(2-[2- (Eicosanoylamino)ethoxy]ethoxy)acetylamino]ethoxy)ethoxy] acetylamino)ethoxy]ethoxy)acetyl][Arg^12,28,Leu^14,Val^27,Lys^32] Exendin-4-(1-39)amide (from UniProt P26349) (peptide)” registered a GLP1cAMPma (3693) [EC50 (nM)] Mean Value of 0.27 nM.

In turn, “N-ε^14-(2-(2-(2-(2-(2-(2-(2-(2-(2- (Octadecanoylamino)ethoxy)ethoxy)acetylamino)ethoxy)ethoxy)acetyl- amino)ethoxy)ethoxy)acetyl)[Arg^12,Lys^14,Val^27,Arg^28]Exendin-4-(1-39)- amide (from UniProt P26349) (peptide)” had a GLP1cAMPma (3693) [EC50 (nM)] Mean Value of 0.088 nM.

Take “N-ε^20-2-(2-(2-(2-(2-(2-(4-(Hexadecanoylamino)-4(S)- carboxybutyrylamino)ethoxy)ethoxy)acetylamino)ethoxy) ethoxy)acetyl[Arg^12,27,Leu^14,Lys^20,Gln^28]Exendin-4-(1-39)-peptide amide (from UniProt P26349)”: the GLP1cAMPma (3693) [EC50 (nM)] Mean Value was found to be 0.033 nM.

“N-ε^14-(2-(2-(2-(2-(2-(2-(4-(Octadecanoylamino)-4(S)- carboxybutyrylamino)ethoxy)ethoxy)acetylamino)ethoxy)ethoxy)acetyl [Arg^12,Lys^14,Val^27,Arg^28]Exendin-4-(1-39)-amide (from UniProt P26349) (peptide)” returned a GLP1cAMPma (3693) [EC50 (nM)] Mean Value of 0.059 nM.

“N-ε^27-2-(2-2-(2-(2-(2-(4-(Octadecanoylamino)-4(S)- carboxybutyrylamino)ethoxy)ethoxy)acetylamino)ethoxy)ethoxy)acetyl [Arg^12,Leu^14,Lys^27,Leu^28]Exendin-4-(1-39)-amide (from UniProt P26349) (peptide)” registered a GLP1cAMPma (3693) [EC50 (nM)] Mean Value of 0.14 nM.

The substance “N-ε^34-(2-(2-(2-(17-carboxyheptadecanoylamino)ethoxy)ethoxy)acetyl) [Leu^14,Arg^12,27,Lys^34]Exendin-4(1-39)amide (from UniProt P26349) (peptide)” displayed a GLP1cAMPma (3693) [EC50 (nM)] Mean Value of 0.44 nM.

“N-ε^20-(2-(2-(2-(2-(2-(2-(17- carboxyheptadecanoylamino)ethoxy)ethoxy)acetylamino)ethoxy) ethoxy)acetyl[Aib^2,Lys^20,Ala^29,Ser(O-benzyl)^39]Exendin-4-(1-39)-amide (from UniProt P26349) (peptide)” had a GLP1cAMPma (3693) [EC50 (nM)] Mean Value of 0.23 nM.

Consider “N-ε^20-{2-(2-(2-(2-[2-(2-(4-(hexadecanoylamino)-4- carboxybutyrylamino)ethoxy)ethoxy]acetyl)ethoxy)ethoxy)acetyl)}- [Gln^12,27,Leu^14,Lys^20,Gln^28]Exendin-4-amide (from UniProt P26349) (peptide)”, for which the GLP1cAMPma (3693) [EC50 (nM)] Mean Value is 0.027 nM.

As to “N-ε^27-(2-(2-(2-(2-(2-(2-(17- carboxyheptadecanoylamino)ethoxy)ethoxy)acetylamino)ethoxy) ethoxy)acetyl[Arg^12,Leu^14,Lys^27,Ala^29]Exendin-4-(1-39)-amide (from UniProt P26349) (peptide)”, the GLP1cAMPma (3693) [EC50 (nM)] Mean Value stood at 5.6 nM.

Regarding “N-ε^28-(2-(2-(2-(2-(2-(2-(2-(2-(2- (Octadecanoylamino)ethoxy)ethoxy)acetylamino)ethoxy)ethoxy)acetyl- amino)ethoxy)ethoxy)acetyl))[Arg^12,Leu^14,Val^27,Lys^28 Exendin-4(1- 39)amide (from UniProt P26349) (peptide)”, the GLP1cAMPma (3693) [EC50 (nM)] Mean Value was 0.025 nM.

As to “N-ε^32-(2-(2-(2-(2-(2-(2-(4-(Octadecanoylamino)-4(S)- carboxybutyrylamino))ethoxy)ethoxy)acetylamino)ethoxy) ethoxy)acetyl[Arg^12,Leu^14,Val^27,Arg^28,Lys^32]Exendin-4-(1-39)amide (from UniProt P26349) (peptide)”, the GLP1cAMPma (3693) [EC50 (nM)] Mean Value is 0.025 nM.

In the case of “N-ε^20-[2-(2-[2-(2-[2-(2-[4-(octadecanoylamino)-4(S)- carboxybutyrylamino]ethoxy)ethoxy]acetylamino)ethoxy]ethoxy)acetyl] [Aib^2,Lys^20,Ala^29,Ser(O-benzyl)^39]Exendin-4-(1-39)-amide (from UniProt P26349) (peptide)”, the GLP1cAMPma (3693) [EC50 (nM)] Mean Value was found to be 0.006 nM.

Substance “N-ε^32-(2-(2-(2-(2-(2-(2-(2-(2-(2- (Octadecanoylamino)ethoxy)ethoxy)acetylamino)ethoxy)ethoxy)acetyl- amino)ethoxy)ethoxy)acetyl))[Arg^12,Leu^14,Val^27,Arg^28,Lys^32]Exendin-4 (1-39)amide (from UniProt P26349) (peptide)” came in with a GLP1cAMPma (3693) [EC50 (nM)] Mean Value of 0.027 nM.

Substance “N-ε^20-[2-(2-[2-(2-[2-(2-[4-hexadecanoylamino-4(S)- carboxybutyrylamino]ethoxy)ethoxy]acetylamino)ethoxy]ethoxy)acetyl] [Arg^12,27,28,Leu^14,Lys^20]Exendin-4(1-39)amide (from UniProt P26349) (peptide)” yielded a GLP1cAMPma (3693) [EC50 (nM)] Mean Value of 0.027 nM.

Substance “N-ε^27-2-(2-2-(2-(2-(2-(2-(2-(2- (Octadecanoylamino)ethoxy)ethoxy)acetylamino)ethoxy)ethoxy)acetyl- amino)ethoxy)ethoxy)acetyl[Arg^12,Leu^14,Lys^27,Leu^28]Exendin-4- (1-39)-amide (from UniProt P26349) (peptide)” gave a GLP1cAMPma (3693) [EC50 (nM)] Mean Value of 0.049 nM.

“N-ε^27-(2-(2-(2-(2-(2-(2-(17- carboxyheptadecanoylamino)ethoxy)ethoxy)acetylamino)ethoxy) ethoxy)acetyl)[Leu^14,Arg^12,Lys^27]Exendin-4(1-39)amide (from UniProt P26349) (peptide)” yielded a GLP1cAMPma (3693) [EC50 (nM)] Mean Value of 0.35 nM.

On to “N-ε^27-{2-(2-(2-(2-[2-(2-(4-(hexadecanoylamino)-4(S)- carboxybutyrylamino)ethoxy)ethoxy]acetylamino)ethoxy)ethoxy) acetyl)}[Gln^12,Leu^14,28,Lys^27]Exendin-4(1-39)amide (from UniProt P26349) (peptide)”, for which the GLP1cAMPma (3693) [EC50 (nM)] Mean Value stood at 0.041 nM.

“N-ε^12-[2-(2-[2-(2-[2-(2-[4-(17-carboxyheptadecanoylamino)-4(S)- carboxybutyrylamino]ethoxy)ethoxy]acetylamino)ethoxy]ethoxy)acetyl] [Lys^12,Leu^14,Arg^27,Gln^28]Exendin-4-(1-39)-amide (from UniProt P26349) (peptide)” yielded a GLP1cAMPma (3693) [EC50 (nM)] Mean Value of 0.22 nM.

The substance “N-ε^20-[2-(2-[2-(2-[2-(2-[4-Octadecanoylamino-4(S)- carboxybutyrylamino]ethoxy)ethoxy]acetylamino)ethoxy]ethoxy)acetyl] [Arg^12,27,Gln^28,Leu^14,Lys^20 Exendin-4(1-39)amide (from UniProt P26349) (peptide)” yielded a GLP1cAMPma (3693) [EC50 (nM)] Mean Value of 0.044 nM.
